In experiment [1] the target is wild type human MIC-1 (human) (UniProt Q99988). As to the kind of experiment: SPR blocking; wtMIC-1 mixed with 2 nM mIgG1, over immobilised mGFRAL(ECR)-Fab; RU of wtMIC-1 binding.
For experiment [2] the target is unchanged. As to the kind of experiment: SPR blocking; wtMIC-1 mixed with 0 nM mIgG1, over immobilised mGFRAL(ECR)-Fab; RU of wtMIC-1 binding.
Experiment [3] has the same target. As to the kind of experiment: SPR blocking; wtMIC-1 mixed with 4 nM mIgG1, over immobilised mGFRAL(ECR)-Fab; RU of wtMIC-1 binding.
Experiment [4] shares this target. As to the kind of experiment: SPR blocking; wtMIC-1 mixed with 8 nM mIgG1, over immobilised hGFRAL(ECR)-Fab; RU of wtMIC-1 binding.
Experiment [5] shares this target. Put plainly: SPR blocking; wtMIC-1 mixed with 0.5 nM mIgG1, over immobilised hGFRAL(ECR)-Fab; RU of wtMIC-1 binding.
The target is the same in experiment [6]. As to the kind of experiment: SPR blocking; wtMIC-1 mixed with 1 nM mIgG1, over immobilised mGFRAL(ECR)-Fab; RU of wtMIC-1 binding.
Experiment [7] shares this target. As to the kind of experiment: SPR blocking; wtMIC-1 mixed with 0.125 nM mIgG1, over immobilised hGFRAL(ECR)-Fab; RU of wtMIC-1 binding.
The target is the same in experiment [8]. As to the kind of experiment: SPR blocking; wtMIC-1 mixed with 0.5 nM mIgG1, over immobilised mGFRAL(ECR)-Fab; RU of wtMIC-1 binding.
Experiment [9] shares this target. Put plainly: SPR blocking; wtMIC-1 mixed with 0.25 nM mIgG1, over immobilised hGFRAL(ECR)-Fab; RU of wtMIC-1 binding.
Experiment [10] has the same target. Put plainly: SPR blocking; wtMIC-1 mixed with 1 nM mIgG1, over immobilised hGFRAL(ECR)-Fab; RU of wtMIC-1 binding.
Experiment [11] shares this target. As to the kind of experiment: SPR blocking; wtMIC-1 mixed with 0.25 nM mIgG1, over immobilised mGFRAL(ECR)-Fab; RU of wtMIC-1 binding.
For experiment [12] the target is unchanged. Put plainly: SPR blocking; wtMIC-1 mixed with 2 nM mIgG1, over immobilised hGFRAL(ECR)-Fab; RU of wtMIC-1 binding.
The target is the same in experiment [13]. Put plainly: SPR blocking; wtMIC-1 mixed with 8 nM mIgG1, over immobilised mGFRAL(ECR)-Fab; RU of wtMIC-1 binding.
Experiment [14] has the same target. As to the kind of experiment: SPR blocking; wtMIC-1 mixed with 0 nM mIgG1, over immobilised hGFRAL(ECR)-Fab; RU of wtMIC-1 binding.
Experiment [15] shares this target. As to the kind of experiment: SPR blocking; wtMIC-1 mixed with 4 nM mIgG1, over immobilised hGFRAL(ECR)-Fab; RU of wtMIC-1 binding.
Experiment [16] shares this target. Put plainly: SPR blocking; wtMIC-1 mixed with 0.125 nM mIgG1, over immobilised mGFRAL(ECR)-Fab; RU of wtMIC-1 binding.

wild type human MIC-1 (human), sequence (Q99988 197-308 limits assumed): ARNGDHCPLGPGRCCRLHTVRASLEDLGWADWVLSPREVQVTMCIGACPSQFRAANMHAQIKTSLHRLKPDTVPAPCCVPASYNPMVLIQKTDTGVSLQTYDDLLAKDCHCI

isotype control (mIgG1) (antibody): the Response (RU) in [1] turned out to be 54.5 RU; in experiment [2], 55.6 RU; in [3], 55.4 RU; in experiment [4], 59.4 RU; in [5] it was 58.4 RU; in experiment [6], 54.1 RU. Further, the Response (RU) turned out to be 58.4 RU in experiment [7]; 55 RU in [8]; 59.4 RU in experiment [9]; 59.3 RU in [10]; 54.6 RU in experiment [11]; 60 RU in experiment [12]. The Response (RU) in experiment [13] is 55.5 RU; in experiment [14], 58.3 RU; in experiment [15] it was 59.1 RU; in experiment [16] it was 55.3 RU.

For the origin of these results see patent US20190025332A1.
